Source: the DeepSol protein solubility set

Assay: soluble on expression in E. coli; label from the status in PepcDB or PDB records

Sequence	soluble on expression in E. coli
MSLDVISELVKKNGSKILLIVLDGLGGLPVKEGKTELELAKTPNLDKLVKNSATGLHIPVDWGITPGSGPGHLGLFGYDPIKYQIGRGILEALGLGIDVKDTDIAVRGNYATVEYRNGKPIVVDRRAGRIPTEENKRITAKLQEAIKEIDGVQVIIKPGMEHRLAIVFRFPEKLSPGSDAINDTDPQQVGKEPLEPKGENPNAEKVAEVVRKFIQRATEILRNEPKANYILLRGFSQKPDIPTMEERFGVKPCCIAVYPMYKGLASLVGMDVIEFEGSTIQDEIDTLKKVWNEYDYFFVHIKKTDSYGEDGNYEGKVSVIEDFDAHLPQFLELKPDVLAITGDHSTPSILKGHSWHPVPLLIHSPYVLGGTSERFTERECLKGELGIIPAVKITQLLLANALRLKKYGAEGHHHHHH	soluble
MAIALSTLVEEADRYLDAARIQDYCPNGLQVEGRPQVRRIVSGVTASQALLDAAVEADADVVLVHHGYFWKGENPCVVGMKQRRLKTLLNNDISLLAYHLPLDLHPEVGNNVQLARQLGFEVEGPLEPGNPRSIVLLGSLAEPMQPADFARHVRDALGREPLLVDAGQPIRRIAWCTGGAQGYIDQAIAAGVDAYLTGEVSEQTVHSARENGISFIAAGHHATERYGVQALGDYLGKRFAIEHLFIDCPNPALEHHHHHH	soluble
MKNKNDQHLRLQQQIIHYRSEAASCRQQVQQLEAELAKEKMRSAYLKEKLREAETTNVETYKKKIAALERQLLLCEIALEETRYNTSKETQTPAFERAAAVSALFHYSVVVPTHLDEEELTIIGDFIIRNHGTAPLHHLIVCLRLSPPKTAVLSGKIVLPNSGRAEQEALISNSAESWTFTQENWREKVRQSGEYWLAPLYDAPLEPGEERRFSQFEITVPPSSNARSLTVDGFVYCAELPKGVPAANHIAIQW	not soluble
MSGIITILGLGAGELDQLTMGVYRKIKEADHLFVRTKEHPVIEELEKEGVQYTSFDAVYEAHDTFEIVYETIANKLLEQAEGTEIIYAVPGHPLVAERTVQLLLEKGEVSNVEVRIEGGQSFLDPMFASLKIDPIEGFQLLDATSFERGQLELRQHLIFCQVYDAFVASDVKLTLMEMLPDDYEVYIVTAAGTSFEQVKKVPLYMLDHETELNNLTSVYMPPVQERASLYQQFDVLREIIAELRGPNGCPWDKKQTHQSLKKYLIEEAYEVLEAIDEEDDDHLVEELGDILLQVMLHAQIGEDEGWFSIDDIIRTLSEKMVRRHPHVFGNTDVNSADEVIANWEEIKKQEKGFVKESVLNGVPKSLPQLLRAYEIQKKAGKVGFDWVDVQPMIEKALEEWQEFQQEVTNMDEEKMLGEFGDLLFAFVNIARHYKIDPEEALRSTNEKFTGRFLYMEAKVAEMNKEMKDLSLEQLDVLWEEAKQTER	not soluble
MAHHHHHHMSASAPRVGLLGAANIAWRAWTGVRANGMSVTRVGCRDVDRGRNFVKRVCDALKIDEAAVPAVCSYEELVSAADVDVVYIAIPVKARDHWVRECIKYKKHVVGEKPPATDAEMLRSWIEALDQQNLLYMDGTMLSHGKRVKEICAAVKQMGGPVKHIFANVTLGGDEAFLANNIRTNPELEPHGALGDLGWYCIRYALHLMDFQMPTEVTGRILKQNDKGAIISFIGDMTFEVGGEVALVSFFVSFEAAFEQTLHITTTEGMLQLDDMCLPMTSRPETVYYEVHNSSYDNVCESHNLHTEVKHTVNGDAPNSQCTELWGDVARILYADGEGDARRLKAKEESSRYWATVSWKTQAVMDKMLESALIGRNAAPTA	not soluble
MTLEISNDYGKIDISNEVIASVVGGKAVECYGIVGMASRQQVRDGIAEILGHENYAKGIKVTENNGVVDIDMYIIVSYGVKISEVANNVQSTVKYTLEKSLNVSVNSINIYVQGVRVNNTGKKALEHHHHHH	not soluble
MSVFAFSFCAVVIMPNLLAMSDEETRGRQAMVANFVKDNQKTIRNGKGDKWMSNFLKTQNLTFHRSLSSPSAMSDSSSQNLVVLADVGTAACASGWTRYDLTGMCYQQSKKTMNWYQGEDYCWNLRPGAHSASVHSQEEAKWLNSLYRDKKNGGQMDSWIGLRRDCDNVTYIWTDGSPTDCLWWQPDYPKSEFAEFSCVTIWETDWLYDNPAYIPGQYDDMKECSDDGSNTPTTTTTMQTTTPSTTSTPTTTSTTTTTSASTTTISTTKPPTTQIDIEKCTSNCPVGWIYFGGLCYSKIQGPGRFVDFNSECTRLGGKLGEVSGADGNEALRLALTSNNGNKILDEAWIQHIGSYNNVASGYVGTAGSCYTVLKNSQTN	not soluble
MSLLKLFDAHFHIIDYRFPLIANQSYLPPEFTVEDYLQRAKPLNICGGAVVSGSFQAFDQTYLLTALSVLGPNFVGVTQLPATVSDEEIIQLNQHGIRAVRFNLKRGGSESIHQLKYFAHRIYEMVRWHVEIYVDSKELGDLTNLLLELPAVSIDHLGLSQSGFSELLHLVEHGIKIKASGFGRVDFDVKKALQTIAQISPDALLFGTDLPSTRAPLPFLDSDIQLIQDLFDEELTEKILYRNACNFYSKNEGHHHHHH	soluble
MNKLQSYFIASVLYVMTPHAFAQGTVTIYLPGEQQTLSVGPVENVAQLVTQPQLRDRLWWPGALLTDSAVKAKALKDYQHVMAQLASWEAEADDDVAATIKSVRQQLLNLNITGRLPVKLDPDFVRVDENSNPPLVGNYTLYTVQRPVTITLLGAVSGAGQLPWQAGRSVTDYLQDHPRLAGADKNNVIVITPEGETVVAPVALWNKRHVEPPPGSQLWLGFSAHVLPEKYADLNDQIVSVLTQRVPD	soluble
MDYFNIFAYGELMKDEILFELINRVPEKNLGKIYNFEKFFDEKIGYYGIKPKENSSISGIILFNINSTELEIFDDYEDEGTYYSKNKTICYDLNGKGYESYVYVRLELEHHHHHH	not soluble
MTLTASSSSRAVTNSPVVVALDYHNRDDALAFVDKIDPRDCRLKVGKEMFTLFGPQFVRELQQRGFDIFLDLKFHDIPNTAAHAVAAAADLGVWMVNVHASGGARMMTAAREALVPFGKDAPLLIAVTVLTSMEASDLVDLGMTLSPADYAERLAALTQKCGLDGVVCSAQEAVRFKQVFGQEFKLVTPGIRPQGSEAGDQRRIMTPEQALSAGVDYMVIGRPVTQSVDPAQTLKAINASLQRSA	soluble
MRIVPFGAAREVTGSAHLLLAGGRRVLLDCGMFQGKEEARNHAPFGFDPKEVDAVLLTHAHLDHVGRLPKLFREGYRGPVYATRATVLLMEIVLEDALKVMDEPFFGPEDVEEALGHLRPLEYGEWLRLGALSLAFGQAGHLPGSAFVVAQGEGRTLVYSGDLGNREKDVLPDPSLPPLADLVLAEGTYGDRPHRPYRETVREFLEILEKTLSQGGKVLIPTFAVERAQEILYVLYTHGHRLPRAPIYLDSPMAGRVLSLYPRLVRYFSEEVQAHFLQGKNPFRPAGLEVVEHTEASKALNRAPGPMVVLAGSGMLAGGRILHHLKHGLSDPRNALVFVGYQPQGGLGAEIIARPPAVRILGEEVPLRASVHTLGGFSGHAGQDELLDWLQGEPRVVLVHGEEEKLLALGKLLALRGQEVSLARFGEGVPV	soluble
GSCKLPVKKATVVYQGERVKIQEKFKNGMLHGDKVSFFCKNKEKKCSYTEDAQCIDGTIEVPKCFKEHSSLAFWKTDASDVKPCA	soluble
MSTETHYKRQLFVILKLFIIMSFMTKCPKCPTYESKKTTNVYRHLREVHNASEAEVDQFRIQRKEGKSLTTKGSGAWKCPVCELVIPTEKGLKNHMNQKHRKKPIDPSTITLATTSPTMVSPPPKRIQLPKSTEKSLVSSVATVRAQPTQKPGGRYKCPVENCTFFKTRKELALHFSEKHDPGSELETMSFETETEFKIWLTCRQEETCSSMQISLSSHDGNRITHFRLCRHEGGQLSLGATKKGATFELSLGATN	not soluble
MLRFGFAAVLLVLAGCSAPMGPEALGPGSYQAAPDPGPFLTPADAQRAFPAVVARVEPVAEAICRERTRGVPCDFQIAVDARPGLDPNAFQTLDDYGRPVIGLTLSLISDARNVDELAFVVGHETAHHILGHIPRQRETALTGAVLAGVLAQMGGADAQTIRSVQEFGANVGARSYSKNFELEADGLGTEIAIRAGYDPVHGAQFFTRLPDPGDTFLGSHPPNAQRIAAVRRAAESIGYVSAWLEHHHHHH	not soluble
MLGRTDISTFPRLKLGFWGEVTLTFPAVCDAAEIVLPANWADMSVAANNDNAAINTNNVNFLHISSYIRILVTTIPLRCGKTRDNPH	not soluble
MANSSVELRVSEAYPRDVGRKIVRIDRQTAARLGVEVGDFVKVSKGDRSVVAVVWPLRPDDEGRGIIRMDGYLRAALGVTVGDTVTVEKAEKVEPASKVVLAPTEPIRFGRDFVEYVKEFLLRKPISRGETIIVPVLEGLPLVVVSTQPAHFVYVTEATEVEIREKPVREEIERLRGVPKVTWEDIGDLEEAKERIREIVELPMKHPEIFKHLGIEPPKGILLYGPPGTGKTLLAKALANEIGAYFISINGPEIMSKYYGESEQRLREIFKEAEENAPSIIFIDEIDAIAPKREEVTGEVEKRVVAQLLTLMDGLKERGRVIVIGATNRPDAIDPALRRPGRFDREIEIRPPDKRARAEILKVHTRNMPLAEDVDLDKLAEMTHGYTGADLAALAKEAAMAALRRFIREGKINFEAKEIPATVLKELKVTMKDFMEAMKMIRPTLIREIYVEVPEVRWSDIGGLEEAKQALREAVEWPLKHPEIFEKMGIRPPRGVLLFGPPGTGKTLLAKAVATESGANFIAVRGPEILSKWVGESERAIRKIFERARQAAPAVVFFDEIDAIAPARGARFDTSGVTDRIVNQMLAEMDGIQPLSNVVVIGATNRPDILDPALLRPGRFDRLIYVPPPDKEARKEIFKIHTKKVPLGEDVDLEKLAEMTEGYTGADIEAVVREAVMAKLREKLEVGKVEMRHFLEALKKVPPSLTKEDILRYERLAKELKKLTLG	soluble
MARDGAVYACQSCGAVQTKWSGQCSACQSWNTLVEEVSAKPPGALSATKATRVRGLQFTGLESETAPPPRILTGVDEFDRVCGGGVVPGSALLIGGDPGVGKSTLLLQVCASAAARGVSCAYISGEEAVEQIRGRADRMGLAKANVSLAAETALRDILDGLKRDNFDLVVIDSIQTMWSDAHEAGPGTVTQVRACATELVRLAKKKGVAILLVGHVTKDGQIAGPRVVEHLVDAVLSFEGERGYPFRILRGAKNRFGATDEIGVFEMGDVGLREVKNPSALFLNEGGERAAGAAVFAGIEGSRPVLVEFQALVAPSAYGTPRRAVVGWDSGRLAMVLAVLEARCGLGFGDKDVYLNVAGGLRITEPAADLAAAAALASSALDVALPQDCVVFGELSLSGEVRPVSRMETRLKEAAKLGFGRALGPLAGLPEGGGALPVAGVARLTDAVRRIGDEIWTSLTLEHHHHHH	not soluble
MGSDKIHHHHHHMRISANFDGGNIETISLANPDDIQLAIRPDAGGEFYQWFNFRFEATIGKTYTLNILNAGGASYLKGWEDYQAVASYDRQTWFRLPTEYKDGKLSISVELDCEAIQIAYFTPYSYERHLDLISAVQLHPLVSTEHLGLTLDGRDMTLVKVGDDDPSKKSIWITARQHPGETMAEWLVEGLLNQLLDNDCPTSKALLDKANFYIVPNMNPDGSVRGHLRTNAVGANLNREWQTPSLERSPEVYYVVNKMHETGVDLFYDVHGDEGLPYVFLAGCEGIPNYSDKLASLQQDFVAALSLASADFQTEFGYDKDEPGKANLTVACNWVANTFKCLSNTLEMPFKDNANLADPFQGWSPERSVYFGEASLIAMRAVIDKIGQ	not soluble
MSARVRPFLMFQGVQAEAAMNFYLSLFDDAEILQIQRYGAEGPGPEGSVLKALFRLGDQSVHCIDSHVRHAFDFTPAFSFFVDCESNAQIERLAEALSDGGKALMPLGDYGFSQRFAWLADRFGVSWQLNLA	soluble
